Source: the supplement of paper PMC5998384

Experiments:
[1] = system: HeLa Kyoto; experiment: melting temperature (median over replicates), in situ; higher = more thermally stable
[2] = system: HeLa Kyoto; experiment: solubility change mitosis vs G1/S (difference of NP-40 vs SDS log2 ratios) (log2 ratio difference); higher = more soluble in mitosis
[3] = system: HeLa Kyoto; experiment: thermal stability score vs G1/S (z-score of summed log2 fold changes over temperatures); higher = more thermally stable than in G1/S
[4] = system: HeLa Kyoto; experiment: solubility in G1/S (NP-40 vs SDS abundance) (log2 ratio); higher = more soluble; settings: cell cycle stage: G1/S
[5] = cell cycle stage: early G1 (4.5 h after nocodazole release)
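Throughout, for melting temperature (median over replicates), in situ: HeLa Kyoto cells synchronized by double thymidine or nocodazole block, proteins quantified by TMT10plex mass spectrometry, three independent biological replicates.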
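Throughout, for solubility change mitosis vs G1/S (difference of NP-40 vs SDS log2 ratios): synchronized HeLa Kyoto cells (double thymidine block for G1/S, nocodazole release for mitosis), protein amounts in NP-40 versus SDS lysates quantified by mass spectrometry, three biological replicates.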
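Throughout, for solubility in G1/S (NP-40 vs SDS abundance): HeLa Kyoto cells arrested at G1/S by double thymidine block, proteins quantified by TMT10plex mass spectrometry in mild NP-40 versus SDS extracts, three biological replicates.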
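Throughout, for thermal stability score vs G1/S (z-score of summed log2 fold changes over temperatures): synchronized HeLa Kyoto cells, proteins quantified by TMT10plex mass spectrometry, three biological replicates, mitosis taken 0.5 h after nocodazole release, G1/S directly after double thymidine block.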

Sequence | melting temperature ([1]; cell cycle stage: G1/S) | melting temperature ([1]; cell cycle stage: mitosis) | solubility change mitosis (log2) [2] | thermal stability score [3, 5] | thermal stability score ([3]; cell cycle stage: mitosis) | solubility in G1/S (log2) [4]
MGCWGRNRGRLLCMLALTFMFMVLEVVVSRVTSSLAMLSDSFHMLSDVLALVVALVAERFARRTHATQKNTFGWIRAEVMGALVNAIFLTGLCFAILLEAIERFIEPHEMQQPLVVLGVGVAGLLVNVLGLCLFHHHSGFSQDSGHGHSHGGHGHGHGLPKGPRVKSTRPGSSDINVAPGEQGPDQEETNTLVANTSNSNGLKLDPADPENPRSGDTVEVQVNGNLVREPDHMELEEDRAGQLNMRGVFLHVLGDALGSVIVVVNALVFYFSWKGCSEGDFCVNPCFPDPCKAFVEIINSTHASVYEAGPCWVLYLDPTLCVVMVCILLYTTYPLLKESALILLQTVPKQIDIRNLIKELRNVEGVEEVHELHVWQLAGSRIIATAHIKCEDPTSYMEVAKTIKDVFHNHGIHATTIQPEFASVGSKSSVVPCELACRTQCALKQCCGTLPQAPSGKDAEKTPAVSISCLELSNNLEKKPRRTKAENIPAVVIEIKNMPNKQPESSL [SLC30A1] | 58.4 °C | 59.4 °C | -0.0896 | -2.04 | -1.95 | -0.0235
MGDAPSPEEKLHLITRNLQEVLGEEKLKEILKERELKIYWGTATTGKPHVAYFVPMSKIADFLKAGCEVTILFADLHAYLDNMKAPWELLELRVSYYENVIKAMLESIGVPLEKLKFIKGTDYQLSKEYTLDVYRLSSVVTQHDSKKAGAEVVKQVEHPLLSGLLYPGLQALDEEYLKVDAQFGGIDQRKIFTFAEKYLPALGYSKRVHLMNPMVPGLTGSKMSSSEEESKIDLLDRKEDVKKKLKKAFCEPGNVENNGVLSFIKHVLFPLKSEFVILRDEKWGGNKTYTAYVDLEKDFAAEVVHPGDLKNSVEVALNKLLDPIREKFNTPALKKLASAAYPDPSKQKPMAKGPAKNSEPEEVIPSRLDIRVGKIITVEKHPDADSLYVEKIDVGEAEPRTVVSGLVQFVPKEELQDRLVVVLCNLKPQKMRGVESQGMLLCASIEGINRQVEPLDPPAGSAPGEHVFVKGYEKGQPDEELKPKKKVFEKLQADFKISEECIAQWKQTNFMTKLGSISCKSLKGGNIS [YARS] | 49.3 °C | 49.4 °C | -0.092 | 0.25 | 2.33 | 0.259
MGDMTNSDFYSKNQRNESSHGGEFGCTMEELRSLMELRGTEAVVKIKETYGDTEAICRRLKTSPVEGLPGTAPDLEKRKQIFGQNFIPPKKPKTFLQLVWEALQDVTLIILEIAAIISLGLSFYHPPGEGNEGCATAQGGAEDEGEAEAGWIEGAAILLSVICVVLVTAFNDWSKEKQFRGLQSRIEQEQKFTVVRAGQVVQIPVAEIVVGDIAQVKYGDLLPADGLFIQGNDLKIDESSLTGESDQVRKSVDKDPMLLSGTHVMEGSGRMLVTAVGVNSQTGIIFTLLGAGGEEEEKKDKKGVKKGDGLQLPAADGAAASNAADSANASLVNGKMQDGNVDASQSKAKQQDGAAAMEMQPLKSAEGGDADDRKKASMHKKEKSVLQGKLTKLAVQIGKAGLVMSAITVIILVLYFTVDTFVVNKKPWLPECTPVYVQYFVKFFIIGVTVLVVAVPEGLPLAVTISLAYSVKKMMKDNNLVRHLDACETMGNATAICSDKTGTLTTNRMTVVQAYVGDVHYKEIPDPSSINTKTMELLINAIAINSAYTTKILPPEKEGALPRQVGNKTECGLLGFVLDLKQDYEPVRSQMPEEKLYKVYTFNSVRKSMSTVIKLPDESFRMYSKGASEIVLKKCCKILNGAGEPRVFRPRDRDEMVKKVIEPMACDGLRTICVAYRDFPSSPEPDWDNENDILNELTCICVVGIEDPVRPEVPEAIRKCQRAGITVRMVTGDNINTARAIAIKCGIIHPGEDFLCLEGKEFNRRIRNEKGEIEQERIDKIWPKLRVLARSSPTDKHTLVKGIIDSTHTEQRQVVAVTGDGTNDGPALKKADVGFAMGIAGTDVAKEASDIILTDDNFSSIVKAVMWGRNVYDSISKFLQFQLTVNVVAVIVAFTGACITQDSPLKAVQMLWVNLIMDTFASLALATEPPTETLLLRKPYGRNKPLISRTMMKNILGHAVYQLALIFTLLFVGEKMFQIDSGRNAPLHSPPSEHYTIIFNTFVMMQLFNEINARKIHGERNVFDGIFRNPIFCTIVLGTFAIQIVIVQFGGKPFSCSPLQLDQWMWCIFIGLGELVWGQVIATIPTSRLKFLKEAGRLTQKEEIPEEELNEDVEEIDHAERELRRGQILWFRGLNRIQTQIRVVKAFRSSLYEGLEKPESRTSIHNFMAHPEFRIEDSQPHIPLIDDTDLEEDAALKQNSSPPSSLNKNNSAIDSGINLTTDTSKSATSSSPGSPIHSLETSL [ATP2B2] | 54.2 °C | 53.6 °C | -0.123 | -1.72 | -2.96 | -0.538
MGDREQLLQRARLAEQAERYDDMASAMKAVTELNEPLSNEDRNLLSVAYKNVVGARRSSWRVISSIEQKTMADGNEKKLEKVKAYREKIEKELETVCNDVLSLLDKFLIKNCNDFQYESKVFYLKMKGDYYRYLAEVASGEKKNSVVEASEAAYKEAFEISKEQMQPTHPIRLGLALNFSVFYYEIQNAPEQACLLAKQAFDDAIAELDTLNEDSYKDSTLIMQLLRDNLTLWTSDQQDEEAGEGN [YWHAH] | 52.5 °C | 52.6 °C | 0.0669 | -1.65 | -1.58 | 0.565
MGDSDDEYDRRRRDKFRRERSDYDRSRERDERRRGDDWNDREWDRGRERRSRGEYRDYDRNRRERFSPPRHELSPPQKRMRRDWDEHSSDPYHSGYEMPYAGGGGGPTYGPPQPWGHPDVHIMQHHVLPIQARLGSIAEIDLGVPPPVMKTFKEFLLSLDDSVDETEAVKRYNDYKLDFRRQQMQDFFLAHKDEEWFRSKYHPDEVGKRRQEARGALQNRLRVFLSLMETGWFDNLLLDIDKADAIVKMLDAAVIKMEGGTENDLRILEQEEEEEQAGKPGEPSKKEEGRAGAGLGDGERKTNDKDEKKEDGKQAENDSSNDDKTKKSEGDGDKEEKKEDSEKEAKKSSKKRNRKHSGDDSFDEGSVSESESESESGQAEEEKEEAEEALKEKEKPKEEEWEKPKDAAGLECKPRPLHKTCSLFMRNIAPNISRAEIISLCKRYPGFMRVALSEPQPERRFFRRGWVTFDRSVNIKEICWNLQNIRLRECELSPGVNRDLTRRVRNINGITQHKQIVRNDIKLAAKLIHTLDDRTQLWASEPGTPPLPTSLPSQNPILKNITDYLIEEVSAEEEELLGSSGGAPPEEPPKEGNPAEINVERDEKLIKVLDKLLLYLRIVHSLDYYNTCEYPNEDEMPNRCGIIHVRGPMPPNRISHGEVLEWQKTFEEKLTPLLSVRESLSEEEAQKMGRKDPEQEVEKFVTSNTQELGKDKWLCPLSGKKFKGPEFVRKHIFNKHAEKIEEVKKEVAFFNNFLTDAKRPALPEIKPAQPPGPAQILPPGLTPGLPYPHQTPQGLMPYGQPRPPILGYGAGAVRPAVPTGGPPYPHAPYGAGRGNYDAFRGQGGYPGKPRNRMVRGDPRAIVEYRDLDAPDDVDFF [SRRT] | 48.2 °C | 49.1 °C | 0.214 | 2.79 | 6.86 | -0.305
MGDTSEDASIHRLEGTDLDCQVGGLICKSKSAASEQHVFKAPAPRPSLLGLDLLASLKRREREEKDDGEDKKKSKVSSYKDWEESKDDQKDAEEEGGDQAGQNIRKDRHYRSARVETPSHPGGVSEEFWERSRQRERERREHGVYASSKEEKDWKKEKSRDRDYDRKRDRDERDRSRHSSRSERDGGSERSSRRNEPESPRHRPKDAATPSRSTWEEEDSGYGSSRRSQWESPSPTPSYRDSERSHRLSTRDRDRSVRGKYSDDTPLPTPSYKYNEWADDRRHLGSTPRLSRGRGRREEGEEGISFDTEEERQQWEDDQRQADRDWYMMDEGYDEFHNPLAYSSEDYVRRREQHLHKQKQKRISAQRRQINEDNERWETNRMLTSGVVHRLEVDEDFEEDNAAKVHLMVHNLVPPFLDGRIVFTKQPEPVIPVKDATSDLAIIARKGSQTVRKHREQKERKKAQHKHWELAGTKLGDIMGVKKEEEPDKAVTEDGKVDYRTEQKFADHMKRKSEASSEFAKKKSILEQRQYLPIFAVQQELLTIIRDNSIVIVVGETGSGKTTQLTQYLHEDGYTDYGMIGCTQPRRVAAMSVAKRVSEEMGGNLGEEVGYAIRFEDCTSENTLIKYMTDGILLRESLREADLDHYSAIIMDEAHERSLNTDVLFGLLREVVARRSDLKLIVTSATMDAEKFAAFFGNVPIFHIPGRTFPVDILFSKTPQEDYVEAAVKQSLQVHLSGAPGDILIFMPGQEDIEVTSDQIVEHLEELENAPALAVLPIYSQLPSDLQAKIFQKAPDGVRKCIVATNIAETSLTVDGIMFVIDSGYCKLKVFNPRIGMDALQIYPISQANANQRSGRAGRTGPGQCFRLYTQSAYKNELLTTTVPEIQRTNLANVVLLLKSLGVQDLLQFHFMDPPPEDNMLNSMYQLWILGALDNTGGLTSTGRLMVEFPLDPALSKMLIVSCDMGCSSEILLIVSMLSVPAIFYRPKGREEESDQIREKFAVPESDHLTYLNVYLQWKNNNYSTIWCNDHFIHAKAMRKVREVRAQLKDIMVQQRMSLASCGTDWDIVRKCICAAYFHQAAKLKGIGEYVNIRTGMPCHLHPTSSLFGMGYTPDYIVYHELVMTTKEYMQCVTAVDGEWLAELGPMFYSVKQAGKSRQENRRRAKEEASAMEEEMALAEEQLRARRQEQEKRSPLGSVRSTKIYTPGRKEQGEPMTPRRTPARFGL [DHX38] | 50.8 °C | 52 °C | 0.0419 | 0.477 | 0.888 | -0.327
MGEIEQRPTPGSRLGAPENSGISTLERGQKPPPTPSGKLVSIKIQMLDDTQEAFEVPQRAPGKVLLDAVCNHLNLVEGDYFGLEFPDHKKITVWLDLLKPIVKQIRRPKHVVVKFVVKFFPPDHTQLQEELTRYLFALQVKQDLAQGRLTCNDTSAALLISHIVQSEIGDFDEALDREHLAKNKYIPQQDALEDKIVEFHHNHIGQTPAESDFQLLEIARRLEMYGIRLHPAKDREGTKINLAVANTGILVFQGFTKINAFNWAKVRKLSFKRKRFLIKLRPDANSAYQDTLEFLMASRDFCKSFWKICVEHHAFFRLFEEPKPKPKPVLFSRGSSFRFSGRTQKQVLDYVKEGGHKKVQFERKHSKIHSIRSLASQPTELNSEVLEQSQQSTSLTFGEGAESPGGQSCRRGKEPKVSAGEPGSHPSPAPRRSPAGNKQADGAASAPTEEEEEVVKDRTQQSKPQPPQPSTGSLTGSPHLSELSVNSQGGVAPANVTLSPNLSPDTKQASPLISPLLNDQACPRTDDEDEGRRKRFPTDKAYFIAKEVSTTERTYLKDLEVITSWFQSTVSKEDAMPEALKSLIFPNFEPLHKFHTNFLKEIEQRLALWEGRSNAQIRDYQRIGDVMLKNIQGMKHLAAHLWKHSEALEALENGIKSSRRLENFCRDFELQKVCYLPLNTFLLRPLHRLMHYKQVLERLCKHHPPSHADFRDCRAALAEITEMVAQLHGTMIKMENFQKLHELKKDLIGIDNLVVPGREFIRLGSLSKLSGKGLQQRMFFLFNDVLLYTSRGLTASNQFKVHGQLPLYGMTIEESEDEWGVPHCLTLRGQRQSIIVAASSRSEMEKWVEDIQMAIDLAEKSSSPAPEFLASSPPDNKSPDEATAADQESEDDLSASRTSLERQAPHRGNTMVHVCWHRNTSVSMVDFSIAVENQLSGNLLRKFKNSNGWQKLWVVFTNFCLFFYKSHQDNHPLASLPLLGYSLTIPSESENIQKDYVFKLHFKSHVYYFRAESEYTFERWMEVIRSATSSASRPHVLSHKESLVY [FARP1] | 49.2 °C | 49.1 °C | -0.0824 | 1.1 | 2.25 | -0.198
